Test results taken from PMC10403523.
Each block holds one substance with its values, some of them ahead of it.

Experiments:
[1] = biological target: 29N59 mononucleosome: recombinant Xenopus laevis histone octamer on 601 DNA with 29 and 59 bp of flanking DNA (Xenopus laevis); test: native gel or EMSA; apparent KD; 6.7 nM 29N59 nucleosomes, WT or ΔAT SWI/SNF varied from 1.3 to 23 nM; 4% native polyacrylamide gel (79:1)
[2] = tested on: yeast SWI/SNF complex (WT) (Saccharomyces cerevisiae); test: EMSA; details: apparent KD, Kd EMSA: 6.7 nM DNA or nucleosome, 1.3-23 nM SWI/SNF, 4% native PAGE (79:1), Methods: prebinding 30 C, 15 min, gel in 0.5x TBE, binding buffer, salt and pH not …
[3] = tested on: yeast SWI/SNF complex (WT) (Saccharomyces cerevisiae); test: competition; details: EMSA competition against 601 DNA; Kd EMSA: 6.7 nM DNA or nucleosome, 1.3-23 nM SWI/SNF, 4% native PAGE (79:1); Methods: prebinding 30 C, 15 min, gel in 0.5x …; binding buffer, salt and pH not

Kd [1]: 7.67 nM
Substance: yeast SWI/SNF complex, wild type (from UniProt P22082 1-1703; P18480 1-905; Q12406 1-477; P09547 1-1314; P18888 1-332)

Substance: 29N59 nucleosome
Kd ([2]; 6.7 nM nucleosome, recombinant Xenopus laevis histone octamer): 7.67 nM

Kd [1]: 20.5 nM
Substance: yeast SWI/SNF complex with both AT-hooks of Snf2 deleted (from UniProt P22082 1-1703; P18480 1-905; Q12406 1-477; P09547 1-1314; P18888 1-332)

Substance: 235 bp 601 DNA
Kd ([2]; 6.7 nM DNA): 7.87 nM

Substance: pUC19 plasmid
Ki [3]: 12 nM
